Entries after “also recorded” stand apart in the source; their conditions may differ.
Test system: IPSC-derived endoderm cells
Experiment: Endoderm differentiation of IPSCs with R-spo1 added, flow cytometry for EpCAM
Type: cell-based, human
Conditions: 5 ng/ml R-spo1 added to endoderm medium
Method: To start with, IPSCs were differentiated into definitive endoderms in a medium containing 100 ng/mL Activin A, 50 ng/mL Wnt3a, and 5 ng/mL R-spo1factors for 5 days (FIG. 1A). During the definitive endoderm development stage, the parenchymal cells of the liver derive from a specific germ layer. […] In particular, it is evident that following independent differentiations, the percentage of CXCR4+/EpCAM+ endodermal cells derived from three independent IPSC lines (WT1, WT2 and WT3) is not too different from one another, and that the endodermal induction step of the protocol can be repeated (FIG. 1B). At this point of the assay, the differentiation medium was modified to obtain more EpCAM+ endoderm cells. Wnt signalling pathway agonist and 5 ng/ml R-spo1, which is known to play a significant role in stem cell growth, were added to the endoderm medium. […] As a result, this protocol enables IPSCs to differentiate into more EpCAM+endoderm cells in two-dimensional mediums.

B1: R-spo1: Wnt signalling pathway agonist known to play a significant role in stem cell growth, added to the endoderm medium (protein, UniProt Q2MKA7 21-263, looked up)
R-spondin-1: SRGIKGKRQRRISAEGSQACAKGCELCSEVNGCLKCSPKLFILLERNDIRQVGVCLPSCPPGYFDARNPDMNKCIKCKIEHCEACFSHNFCTKCKEGLYLHKGRCYPACPEGSSAANGTMECSSPAQCEMSEWSPWGPCSKKQQLCGFRRGSEERTRRVLHAPVGDHAACSDTKETRRCTVRRVPCPEGQKRRKGGQGRRENANRNLARKESKEAGAGSRRRKGQQQQQQQGTVGPLTSAGPA
morphology of the cells (DIC images): not affected negatively
EpCAM ratio / number of EpCAM (+) cells (flow cytometry, three healthy IPSCs): causes an increase in the number of EpCAM (+) cells; also recorded: increases the EpCAM ratio considerably
